Measured values taken from patent US20110212106A1, “HIV-1 NE[…] USES THEREOF” (priority 2010, published 2011).
Where two headings read alike, the source gives them in different places.

Experiments:
[1] = test system: HIV-1 pseudoviruses in TZM-bl cells
[2] = In vivo administration in macaques
Excerpt: Specificity: V3 loop. Pepscan analysis identified the epitope which is very conserved in the tip of V3 of gp120. It includes 4 residues involved in co-receptor (CCR5 or CXCR4) binding. Also HGN194 has accessibility problems (Fab fragment and single chain antibody may work better). Neutralizes most Tier 1 isolates (they are more sensitive isolates since the epitope is more accessible).

HIV-1 isolates = test: Neutralization of HIV-1 isolates (TZMbl-based or HOS-based assay, not specified); assay type: cell-based
Excerpt: FIG. 5. Epitope mapping of V3-specific mAbs by linear and circular peptide scanning. (A) Eight gp120-specific mAbs were mapped with linear and cyclic peptides to the V3 region. Shown is the HIV-1 isolate used for the mapping, the minimal epitope, the binding breadth expressed as number of recombinant Env proteins out of the 16 tested, and the fraction of isolates neutralized in the HOS and TZMbl-based neutralization assays, respectively. (B) Alignment of the region corresponding to the epitope recognized by mAb HGN194 in 44 HIV-1 isolates. Co-receptor binding residues are bold. Highlighted in grey are the isolates neutralized by HGN194 either in the TZMbl-based or in the HOS-based assays. […]
To measure the neutralization activity of the isolated mAbs, luciferase-encoding virions pseudotyped with the desired HIV-1 Env proteins were used in a single-cycle infectivity assay, as previously described (Gorny M K, et al. (2002) J Virol 76: 9035-9045). […] The cells were then lysed with Britelite reagent (Perkin-Elmer) and the relative light units in the cell lysates were determined on a luminometer microplate reader (Veritas, Turner Biosystems). […]

[3] = test system: HIV-1 pseudoviruses in HOS-CD4-CCR5 cells
Experimental: To measure the neutralization activity of the isolated mAbs, luciferase-encoding virions pseudotyped with the desired HIV-1 Env proteins were used in a single-cycle infectivity assay, as previously described (Gorny M K, et al. (2002) J Virol 76: 9035-9045). Briefly, appropriate dilutions of the virion-containing culture supernatants were pre-incubated at 37° C. for 1 h with mAbs at various concentrations. The virus-mAb mixtures were added to HOS-CD4-CCR5 cells and incubated for 3 days at 37° C. A similar protocol was used for supernatants screening using TZM-bl cells (Li M, et al. (2006) J Virol 80: 11776-11790). The cells were then lysed with Britelite reagent (Perkin-Elmer) and the relative light units in the cell lysates were determined on a luminometer microplate reader (Veritas, Turner Biosystems). The 50% inhibitory dose (IC50) was defined as the sample concentration at which relative luminescence units were reduced 50% compared to virus control wells.
The neutralizing activity of the mAbs was measured using 20 pseudotyped HIV-1 primary isolate envs characterized by different sensitivity to neutralization (Li M, et al. (2005) J Virol 79: 10108-10125; Li M, et al. (2006) J Virol 80: 11776-11790). The mAbs were tested at a fixed concentration (100 μg/ml) in the luciferase based neutralization assay using HOS-CD4.R5 as target cells.

gp120 binding to sCD4 = conditions: inhibition of sCD4 binding
Experimental: Shown is mean±SD of triplicates.
The ability of mAbs to inhibit binding of sCD4 to gp120 or gp140 was evaluated by ELISA. Serial dilutions of mAbs were pre-incubated with gp120 (or gp140) and added to plates pre-coated with sCD4. After 1 h plates were washed and incubated with sheep polyclonal antibody D7324 (Aalto Bio-Reagents) followed by washing, incubation with AP-conjugated rabbit anti-sheep IgG antibody (Abcam, Cambridge, UK), extensive washing and detection using p-NPP (Sigma) as substrate.

B1: HGN194: human mAb binding the V3 crown of gp120; VH SEQ ID NO: 45, VL SEQ ID NO: 46 (antibody, listed as Homo sapiens, V domains shown)
VH: EVQLVQSGAEVKKPGESLKISCYGSGYNFNDYWIGWVRQMPGKGLEWMGMIYPDDSDTKYSAAFEGQVTLSADKSISTAYLQWTSLRASDTATYYCARLDGDYADFDSWGQGTLVTVSS
VL: QSVLTQPPSVSAAPGQKVTISCSGTNSNLGDKFVSWYQQLPGTAPRLLIYDNDKRPSGIPDRFSGSKSGASATLAITGLQTGDEADYYCGTWDNSLSALFGGGTKLTVL
With B1 the “Percentage of HIV-1 isolates neutralized” value ([1]; All (92)) was 21%, the “Neutralization TZM-bl (number of isolates neutralized)” value ([1]; TZM-bl based assay, isolates neutralized/isolates tested) was 19/92 and the “Percentage of HIV-1 isolates neutralized” value ([1]; Tier 1 (10)) was 100%. For the same molecule, the “Percentage of HIV-1 isolates neutralized” value ([1]; Tier 1 + Tier 2, Clade A (8)) was 38%, the “Percentage of HIV-1 isolates neutralized” value ([1]; Tier 1 + Tier 2, Clade AD (1)) was 0% and the “Percentage of HIV-1 isolates neutralized” value ([1]; Tier 1 + Tier 2, Clade AG (16)) was 0%. The “Percentage of HIV-1 isolates neutralized” value ([1]; Tier 1 + Tier 2, Clade B (29)) was 24%, the “Percentage of HIV-1 isolates neutralized” value ([1]; Tier 1 + Tier 2, Clade BC (11)) was 0% and the “Percentage of HIV-1 isolates neutralized” value ([1]; Tier 1 + Tier 2, Clade C (26)) was 23%. For the same molecule, the “Percentage of HIV-1 isolates neutralized” value ([1]; Tier 1 + Tier 2, Clade G (1)) was 0%, the “Percentage of HIV-1 isolates neutralized” value ([1]; Tier 2 (82)) was 11% and the “Percentage of HIV-1 isolates neutralized” value ([1]; Tier 2, Clade A (5)) was 20%. The “Percentage of HIV-1 isolates neutralized” value ([1]; Tier 2, Clade AD (1)) was 0%, the “Percentage of HIV-1 isolates neutralized” value ([1]; Tier 2, Clade AG (16)) was 0% and the “Percentage of HIV-1 isolates neutralized” value ([1]; Tier 2, Clade B (24)) was 8%. For the same molecule, the “Percentage of HIV-1 isolates neutralized” value ([1]; Tier 2, Clade BC (11)) was 0%, the “Percentage of HIV-1 isolates neutralized” value ([1]; Tier 2, Clade C (24)) was 17% and the “Percentage of HIV-1 isolates neutralized” value ([1]; Tier 2, Clade G (1)) was 0%. The “pseudoviruses neutralized in the TZM-bl based assay” value ([1]; neutralized/tested) was 19/92, the efficacy in macaques [2] was “complete protection” and the “Cross-competition with: 2G12” value (gp120; inhibition of biotinylated mAb 2G12 binding to immobilized gp120) was “− (−, <50% inhibition)”. The “Cross-competition with: HGA9” value (gp120; inhibition of biotinylated mAb HGA9 binding to immobilized gp120) was “+ (+,90-100% inhibition)”, the “Cross-competition with: HJ16” value (gp120; inhibition of biotinylated mAb HJ16 binding to immobilized gp120) was “− (−, <50% inhibition)” and the “Cross-competition with: HR10” value (gp120; inhibition of biotinylated mAb HR10 binding to immobilized gp120) was “+ (+,90-100% inhibition)”. The “Cross-competition with: b12” value (gp120; inhibition of biotinylated mAb b12 binding to immobilized gp120) was “− (−, <50% inhibition)”, the IC50 (HIV-1 isolates; isolate 93MW965.26) was under 0.02 µg/mL and the neutralization (HIV-1 isolates; isolates Du422.1, ZM197M.PB7 and Du172.17) was “not neutralized”. The “Neutralization HOS (number of isolates neutralized)” value ([3]; HOS-based assay, isolates neutralized/isolates tested) was 11/20, the “pseudoviruses neutralized out of the 20 pseudoviruses” value ([3]; mAb at fixed concentration 100 μg/ml) was 11 and the “pseudoviruses neutralized in the HOS-based assay” value ([3]; neutralized/tested) was 11/20. The “Cross-competition with: sCD4” value (gp120 binding to sCD4) was “− (−, <50% inhibition)”.
